Reference: US20100190693A1

Assays:
[1] = target: CBP (endogenous, HIT cells) (hamster); experiment: cell-based or functional assay
KIX-VP16 = KIX-VP16 (UniProt Q92793); experiment: cell-based or functional assay
Chain of KIX-VP16 (Q92793 587-666): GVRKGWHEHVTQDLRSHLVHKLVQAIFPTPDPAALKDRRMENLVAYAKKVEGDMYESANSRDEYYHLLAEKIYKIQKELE

With “GAL4-CREB M1 (Ser133Ala) (from UniProt P04386 1-147; P16220 1-341)” the GAL4 luciferase reporter in HIT cells, response to cAMP [1] was 2.5 fold.

“GAL4-CREB, wild-type (from UniProt P04386 1-147; P16220 1-341)” showed a GAL4 luciferase reporter in HIT cells, response to cAMP [1] of 10 fold.

GAL4-KID (from UniProt P16220 87-146) gave a GAL4 luciferase reporter, mammalian two-hybrid assay in HIT cells, forskolin (KIX-VP16) of 20 fold.
